Test results reported in the supplement of paper PMC12636428.

Tested on: Saccharomyces cerevisiae
Assay: transcriptional activation domain activity (GFP:mCherry ratio, weighted mean of sorted bins, harmonized to initial dataset scale) (arbitrary fluorescence ratio units); higher = stronger transcriptional activation
Settings: beta-estradiol 1 µM; induction time 4 h
Procedure, shortened: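 Each value is an activation activity: the read-weighted mean of bin median fluorescence, averaged across barcodes, then mapped linearly to the initial dataset scale. The tiles, fused to an estradiol-inducible synthetic transcription factor, sat at the yeast URA3 locus in GFP-reporter diploids. Cells spent 4 hours at 30 °C in SC with 1 uM beta-estradiol before sorting into 8 GFP:mCherry bins, and tiles below 50 reads were removed.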

Sequence | transcriptional activation domain activity
IVKGTDAQQLAQIVVANLFCAILMRQDYVINAFFNFFCSVPTSWPLAIRRVCA | 53100
FFAFTFILMMACLVSGIGWCLLYFTCMYLLLIYYILSLFFYSPLASCNSFFFF | 27200
MFCLRSWLPLLFIPTNAPPVFVFLFFACTFFLSRPCVYCSFLLLILFFTSCYW | 52700
IRLVSSEMIRYLKKHDFKDITYYTLYISLMGFSKRYYRQGILMLKCVDIEVIY | 74500
TLTQRLSGSMIYIWCSGGVVFAIVLALQVLVLFALLNVITCLEGHMLSIHGWP | 39900
CKVHAWLVGLGDVPPREMLQGLGRSLLVRSVVLSCHCLGRMSFVICIHAVHIM | 42700
TWHHSIYVPYSFVAAYDHPVCYLIHRFLPLYLTAITFRFHIMTYLLLVGLFSL | 45200
DEVLKPLWLGIRLHRGKGLAAFLKAIGFIIPLMDPNTLTVILIREFQTSDEEM | 15100
AALALKFRYRIDGSTEDRWISVSRMLNKIAHWYLPQKYTFLHPSGIVSYAVIR | 66900
NGGGEQPKGGRGGKSEGGAGNDQGRTNNRGRGDRRGGRGGRDNRGGRGGGSRD | < 6570
MSIVPVNSTYTLCILLMFVMLETTLYDPPLCGCMARLVTMFYGFFYGFFIYLI | 61000
SSSRRRSQSPAAEASRSRRERSRDRSDAEDEGGSRSGSRRRRRRGSAEPREED | 41600
NDFEKLEFFNKYAKVNTNNDVNENNDLWNSYLQSMDDTTGKNSGNYQQVDNDD | 35700
CWVVWGRRWLIVLLPIICLITATVSKVLQVYLVNSNAYMLYEVFLMLYISFVL | 44100
TFQPEHTCFPFFLFFFFLFFPPLSFFLPLFFPYSFSVAPLLSAPTVTTHTFTF | 52800
MLPDEVSPWFQEVFIPTLLAYCGTFQHPWDLPQPFEDIIAELWPFVFPLSLPY | 68000
VLCTCVPRQLVEPLVKLRKIHRRLAMTWIAALDYFASYRLVPFIRMIMELESV | 44700
KDATGDDAARARGGDKGGEREKAGGKGGRRGPKEKEKGKQKAKESKGAAGFAE | 55600
AILKCIACHNGAMDSVRLLSVLTVPSGPALAHVHLCLLRYLKNRVISEQFGPS | 21100
MGSFLPFLFFSFCYTFVCYFFSIIALVVFVYFTLAVEFFFFFFGCLRCLLLWL | 57600
PLGTVGLAKLVFVKMFGGAKRITITLISAALLMMAVRFFSIAHPFLLADNRHY | 62400
IRGLLILRYQRGYKDLNHCEPQVIFYDRLCGFLVLGWFLHYFPFFLMSRQLFL | 88200
KAMGLLDSARIVSWHVSYSLVHLPSWISFAIIYKVRLFVKTNILILLVVHVLF | 41600
GNAREMRASSARAAGFRRRGRQASNTRAAGNEREGGEQRARGRGASSARAGGI | 43400
SRSRKGRGRRRRGSKASRGSRSSRGSAASSANTSDSSSSSSSSDSDDSSSSSS | 18200
FYGDISLSRRGFLIASMFILRLFRAISYLAFNAILVDMPTRQAILRFFHYFGR | 50200
ATSVWLRVFFIAVSSIAVIPILNFWGLCKLWGFIFFFSCGNVYVGLLFTVVLF | 62300
METTVSGQSSQPPAANDDQEPTKKRKRDKYVGKACGPCKRRKIRCGGGVPCES | 36300

Sequence | transcriptional activation domain activity
GDAEPSSKGGEDSSGGEGSADEEKPKAKPAKAKSKSSSSKEPVKKKAKKEKKD | 21400
DHSDKIDKKRKDEDDSKRSKSDRKSKRDEERFSDSDKGARLDKDHSKSSRSKS | 43500
LRHICLLLSIWSKHLIERLKKLPANVRLTIVQALVRFVIPKLHIYGHKLLCQL | 44500
RGTQKREKRGKEKGEGGTWGRAEGEGKRGGKEKGRREEKRGKKKEAGGAGGRG | 23500
FTSPLPFALVPLFMYGDAQNWCWFTKQNTLYGIYLWFMWLWILFAFNLVCLFF | 56600
LLYLPAVLEIYQDVHRSDLSSTVSWETFVAKIFEWMELQYVWPIAGKLLVTIF | 74800
EAEGEAGAEEPAAEGEAGAEGEAGGEGELEAEPAAEGEGEAEPEAGAETEAAG | 13200
RNMRALRKTWQSSASEDGGGGGEGDEHPHLEDLEYTSREWGAFAQGLKLLAVS | 70800
RYNHLFDETLVAICVLLGRIGGRFIVDDFEVMWCHNLFRTKVVKAIVVFALAY | 39600
YGILTLQYLVGVIWVLDTLHTIFVTHMVYTYLVTNFGDYLALGHNIWSFNLHV | 37100
NMMLYLLKGLPALSMSDPASITRFIKLVDELLYYAYEAERRSPLPTSHPNLVR | 65700
NNCVGYFNYCHFIRLIVYANITTIYIFVLLCCRAHQIIFIQSASLEVGFLCVN | 66500
LVYNDCMYIIFHLHMFEYRYGKQLAKTLLYWTYAHTHFCQLVQVESALRQVIQ | 48100
HVAMRAAVKANNSVMHRLLRNWGENRRRHFHGLLLVRLFRTTLVFSCADEVAA | 53300
SLVDFHKFFKWLLLKVVKGLNKLRNLHNERPKELQTNEMEHLLNLMKIVRFFA | 46500
MSSHDGYRTRRTPQACVACRRRKTKCDGARPRCRHCASRHRQCVWPDVAEGAS | 39900
MGGGCLYIILFLLRTTLGVMWVFFCLLFYLFLFWFSKSLIFFSLFLVLIPSYF | 36500
GKGEEEVEEEERLYDRLVIANGHYRVPFVPPLPGLAAWQRAGRATHAAWYRAA | 59800
MLAYRSQQGWSEGDFLACRWFFSFFFPLFLPLSPPSFLCPFSFLFLFFLLLHL | 45300
LFLFLFLIFFSFLKCTFTYIFVPRFRFSLFSHSGPAVSLVYILGLLGYWGVNV | 55100
TRMLLHWFHCQDNVWYYYVAFFFAELLVYTVMIVSIGSILFQWRFFCRVAYKM | 32000
GAGVGGATDGAEGKKGDGGGGKEKEREEGERRKKKKKRNKEGRDGGGGGTGGD | 43300
PTGESLLDAYWKTLLGGITYGDPNGMEALFWDWYQGILPFRMLQLFHLDRVWF | 48500
EVDAEAAEKPVKRLTRKARGVTEENQTSDAQSSRPAPVRRGRKPASVASTTAP | 54700
FSLLSFCCLLVPLLLSYIPLTTSHVFPILLFFFTLPLTSALPLLLLYLFHELL | 47000
SRSRSRDRHRRSSRRHRRRSPSASRSRSASRSRRRRHSKRRSREKRHSSRRHR | 30200
MIDILFFVLFHFFDVLFFSLFCLFLCIILFSSLTFLIYYFFFFFLFFPFFGLF | 36500
